Experimental data taken from patent publication US12331106B2, “Anti-angiopoietin-2 antibodies that induce Tie2 activation” (Institute for Basic Science, priority 2018, dated 2025).

Legend:
[1] = test system: choroidal neovascularization (CNV) / choriocapillaris; test: Laser-induced CNV model, OCTA: CNV volume and choriocapillary regeneration (avascular space); format: in vivo, mice; conditions: for reduction of the avascular space: 5 μg intravitreal at 7 days, change from baseline
Method: To determine the effect of 2C8H11 in CNV regression and choriocapillary regeneration after establishment of CNV, Fc, VEGF-Trap, control antibody or 2C8H11 (5 μg each) was given intravitreally to the mice by the Nanoliter 2000 micro-injector (World Precision Instruments) at 7 days after laser photocoagulation. Intra-vital optical coherence tomography angiography (OCTA) was performed at 6, 14, 21, and 35 days after laser photocoagulation (FIG. 14A). The retinochoroidal layers were imaged using a prototype high-speed swept-source optical coherence tomography (OCT) system, utilizing a custom ring cavity wavelength-swept laser centered at 1048 nm with an A-scan rate of 230 kHz. OCT images were collected in a 1.7 mm×1.7 mm field of view within the retino-choroidal layer to monitor regeneration of choroidal vasculatures at the site of laser photocoagulation after intravitreal injection of reagents. […] Then, by using automatic layer flattening and segmentation algorithms, cross-sectional OCT angiograms were flattened to RPE, and en face OCT angiograms were generated by separate projection of each flattened cross-sectional OCT angiogram in three depth ranges: inner retinal, outer retinal and choroidal layers. The outer plexiform layer and Bruch's membrane were defined as the boundaries separating inner retinal, outer retinal, and choroidal layers. The density of retina and choroid vessel was automatically calculated as the proportion of measured area occupied by flowing blood vessels defined as pixels having decorrelation values above the threshold level. Avascular pixels were detected from the en face OCT angiogram representing choroidal layer by means of the image processing toolbox of MATLAB® (Math Works). Then the total volume of the avascular space surrounding the laser injury site was calculated by summing the number of avascular pixels multiplied by the volume of one pixel. In order to analyze the changing complexion of avascular space volume, serially measured values in each eye were transformed into percentage change from baseline value. […] Overall, these findings indicate that both 2C8H11 and […] promotes regeneration of the choriocapillaris, while VEGF-Trap leads to choriocapillary regression in the laser-induced CNV model.

[2] = test system: CD31+ endothelial cells of CNV; test: Co-localization of subcutaneously injected antibody with CD31 in endothelial cells of CNV; format: in vivo, mice; conditions: 25 mg/kg subcutaneous at 1 day; 2, 4 and 8 days after laser photocoagulation
Method: To investigate whether subcutaneously injected 2C8H11 can also exert the therapeutic effects on CNV, we firstly evaluated co-localization 2C8H11 antibody and CD31 in endothelial cells of CNV. The subcutaneous administration of 2C8H11 antibody (25 mg/kg) was performed at 1 day after laser photocoagulation. As a control, Fc (25 mg/kg) was administered in the same manner to the mice. The co-localization of 2C8H11 antibody and anti-CD31 antibody (1:200, Millipore®) in endothelial cells of CNV was directly detected by anti-human IgG antibody (1:1000, Jackson ImmunoResearch Laboratories) at 2, 4, and 8 days after laser photocoagulation (FIG. 15A).

[3] = test system: tumor vessels of LLC tumor; test: Tumor vessel perfusion (lectin) and hypoxia (Hypoxyprobe) in LLC tumors; format: in vivo, C57BL/6 mice; conditions: compared with Fc or Fc+Cpt
Method: To analyze the functionality of tumor vessels after treatment with 2C8H11, vessel perfusability and hypoxia status were evaluated. Before harvesting tumor mass, the mice were intravenously injected with 100 μl of DyLight™ 488-Lectin (Vector laboratory) and intraperitoneally injected with 60 mg/kg of Pimonidazole-HCl (HYPOXYPROBE™+) dissolved in PBS for 30 min before sacrifice. The mice were perfusion-fixed with 4% PFA. We obtained frozen sections from the tumor mass, which were stained with hamster anti-CD31 antibody (1:200, Millipore®) and 4.3.11.3 mouse Pacific blue-Mab (1:50, HYPOXYPROBE™+) in PBS. The sections were imaged using LSM880 confocal microscope (Zeiss), and the obtained images were analyzed using ImageJ software (http://rsb.info.nih.gov/ij) to quantify Lectin+area/CD31+area and HYPOXYPROBE™+area.
Furthermore, hypoxia, as indicated by HYPOXYPROBE™+area, was decreased in tumors treated with 2C8H11 or 2C8H11+Cpt by 72%, when compared with tumors treated with Fc or Fc+Cpt (FIG. 11C).

[4] = test system: downstream signaling of the Tie2 receptor (Akt phosphorylation) in HUVECs; test: Akt phosphorylation in HUVECs by humanized anti-Ang2 antibodies (immunoblot); format: cell-based, human; conditions: hAng2 1 μg/ml, 30 min, antibody 0.5 μg/ml, maintained until 50 μg/ml
Method: To investigate whether the humanized anti-Ang2 antibodies induce the downstream signaling of the Tie2 receptor in endothelial cells, HUVECs (LONZA™) were treated with human Ang2 protein together with humanized anti-Ang2 antibody. Then, the level of Akt phosphorylation, the main downstream signaling protein of Tie2 receptor was measured by immunoblotting. To compare the degree of Akt activation, cells were treated with full-length hAng2 (R&D® Systems) alone or antibody alone in the experiment.
Specifically, HUVEC cells (1×10^5 cells/ml) were cultured in EGM-2 (LONZA™) at 37° C. in 60 mm culture dish. Cells of 90% confluency were incubated with EBM-2 (LONZA™) for 4 hrs. The serum-starved HUVECs were treated with the mixture of anti-Ang2 antibody and hAng2 protein (1 μg/ml, R&D® Systems), and further incubated for 30 min. The cells were washed with cold PBS, treated with lysis buffer, and lysed at 4° C. for 20 min. Then, the cell lysates were prepared by centrifugation at 13000 rpm for 15 min. 5× SDS sample buffer was added to the cell lysate and the mixture was boiled at 95° C. for 5 min. Then, the mixture was subjected to SDS-PAGE and subsequent Western blotting.
To investigate the phosphorylation of Akt, the membrane was blocked with 5% skim milk-containing TBST for 1 hr at RT, and incubated with anti-phospho-Akt antibody (S473) at 4° C. for about 8 hrs. […]

B1: 2C8H11: humanized anti-Ang2 human IgG1 antibody from mouse 2C8; VH SEQ ID NO: 55, VL SEQ ID NO: 56 (antibody, V domains shown)
VH: QVQLVQSGAEVKKPGASVKVSCKASGYTFTSYWMHWVRQAPGQGLEWMGMIDPSDSETRLNQKFKDRVTMTRDTSTSTVYMELSSLRSEDTAVYYCARRFYYGSDWYFDVWGQGTLVTVSS
VL: DIQLTQSPSFLSASVGDRVTITCKASQDVGTAVAWYQQKPGKAPKLLIYWASTRHTGVPSRFSGSGSGTEFTLTISSLQPEDFATYYCQQYSSYPLTFGQGTKVEIK
modifications: human IgG1 constant regions; VH; VL
- CNV volume in outer retinas (OCTA) ([1]; 5 μg intravitreal at 7 days after laser photocoagulation): markedly reduced CNV volume
- reduction of the avascular space ([1]; 14 days after laser photocoagulation): 30.1%
- reduction of the avascular space ([1]; 21 days after laser photocoagulation): 36.4%
- reduction of the avascular space ([1]; 35 days after laser photocoagulation): 37.0%
- detection of administered antibody in CD31+ endothelial cells in CNV area [2]: highly detectable
- hypoxia decrease (HYPOXYPROBE+ area) [3]: 72%
- increase in perfusion (Lectin+ area/CD31+ area) [3]: approximately 3 fold
- Akt phosphorylation [4]: increased markedly
